Assay results reported in US20260028391A1.
Substitutions are numbered along the chain they refer to.

B1: MPK162 (antibody, V domains shown)
VH: EVQLVESGGGLVKPGDSLRLSCAASGFSLSSYYMFWIRQAPGKGLEWVSDISGGSTFTNYADSVKGRFTISRDNAKKVLYLQMNSLRVDDSAVYYCVRGSSISPNWFESWGQGALVTVSS
VL: QSVLTQPPSVSGAPGQRVTISCTGTSSNIGAGYDVHWYQQVPGTAPKLLIYGNSNRPSGVPDRFSGSKSGTAASLAINGLQTEDEAEYYCQSYDRSLTGSYVFGSGTRVFVR
B2: MPK136 (antibody, V domains shown)
VH: EVQLVESGGGLVKPGGSLRLSCEASGFSLSGYYMIWIRQAPGKGLEWISSISGSGNYINYADSVKGRFTVSRDNGHNTLYLQMNSLRVEDTAVYYCATEQTPSPGPFDHWGQGTLVTVSS
VL: QVQLVQPPSVSGAPGQRVSISCTGTSSNIGTGYDVHWYQQFPGTSPKLLIYRNTNRPSGVPDRFSGSKSGSSASLAIAGLQAEDEADYYCQSYDRSVSGWVFGGGTKLTVL
B3: MPK141 (antibody, V domains shown)
VH: EVQLVESGGGLVKPGGSLRLSCAASGFTISGYYMTWIRQAPGKGLEWISYISGSSSYTNYADSVKGRFTISRDNGRNSVYLQMNSLRADDTGVYYCAREETPSPGPFDSWGQGILVTVSS
VL: QSVLTQPPSVSGAPGQRIIISCIGSSSNIGTGYDVHWYQQLPGRAPKLLISRNTNRPSGIPDRFSGSKSGTSASLAITGLQADDEADYYCQSYDRGLDGWVFGGGTKLTVL
B4: MPK174-v2 (antibody, V domains shown)
VH: EVQLVESGGGLVKPGGSLRLSCAASRFKFGDYYMSWIRQAPGKGLEWVSNISPSSSYTNYADSVKGRFTISRDNAKNLLYLQMNSLRAEDTAVYYCARESCSGGSCSLHGMDVWGQGTTVTVAS
VL: QSVLTQPPSVSGAPGQRVTISCTGSSSNIGAGYDVHWYQQLPGTAPKLLIYDNSNRPSGVPDRFSGSKSGTSASLAITGLRAEDDADYYCQSYDRSLGGSIFGGGTKLTVL
B5: MPK196 (antibody, V domains shown)
VH: B4 VH with E1Q, K76N
VL: B4 VL
B6: MPK142-v1 (antibody, V domains shown)
VH: EVQLVESGGGLVEPGGSLRLSCAASGFTISGYGMSWVRQAPGKGLEWVSSISASSSYIYYGDAMKGRITISRDNGWNSMYLQMNSLRTEDTAVYYCATAPIEPPYFDLWGRGTLVTVSS
VL: QSVLTQPPSVSGAPGQRVTISCTGSSSNIGAGYDVHWYQQFPGKAPKVLIYGNNNRPSGVPDRFAASNSGASASLAITGLQAEDEAAYFCQSYDRRLSGPVFGGGTKLTVL
B7: MPK142-v2 (antibody, V domains shown)
VH: B6 VH
VL: DIQLTQTPTSLSASVGDRVTFTCRASQNIGFYLNWYQQKPGKAPRLLIYGASNLQSGVPSRFSGSGAGTDFSLTISSLQPEDFATYYCQQSFNTPRTFGQGTKVEIN

What was measured:
[1] = target: fusion glycoprotein of the RSV used in the neutralization assay of Example 1 (respiratory syncytial virus (strain not stated)); test: cell-based or functional assay
[2] = target: fusion glycoprotein of the MPV D280 used in the neutralization assay of Example 3 (metapneumovirus (strain not stated)); test: cell-based or functional assay
[3] = target: MPV fusion glycoprotein with the D280N mutation (MPV-F N280) (metapneumovirus); test: SPR; F protein loaded on streptavidin sensors, mAb in solution
[4] = target: MPV fusion glycoprotein without the D280N mutation (MPV-F D280) (metapneumovirus); test: as above

| Binder | RSV Neutralization - IC50 [1] [µg/mL] | MPV D280 Neutralization - IC50 [2] [µg/mL] | Kd [3] [nM] | Kd [4] [nM] |
| --- | --- | --- | --- | --- |
| B1 | 0.0252 | 0.102 | 100 | 100 |
| B2 | 0.0344 | 0.0158 | 4.6 | 0.001 |
| B3 | 0.014 | 0.0098 | 0.84 | 0.001 |
| B4 | 0.0136 | 0.0177 | 100 | 11 |
| B5 | – | 0.027 | 100 | 3.8 |
| B6 | 0.0211 | 0.003 | 100 | 100 |
| B7 | 0.162 | 0.135 | 0.2 | 0.0027 |
